First the molecules themselves.
B1: Hairpin Ribozyme (parent)
chain: GUCCUCUUUCACGUGCGCGUGAAAGAGAGAAGUGAACCAGAGAAACACACGUUGUGGUAUAUUACCUGGUA

The data set covers variants of B1. Description: self-cleavage, relative activity (ratio to wild type); higher = more cleavage; co-transcriptional.
Take GUCCUCUUUCACGUGCGCGUGAAAGAGAGAAAUGAACCAGAGAAACCCACGUUGUGGUAUAUUACCUGGUA [G32A A47C]: the self-cleavage worked out at 0.143.

Regarding GUCCUCUUUCACGUGCGCGUGAAAGAGAGAUGUGAACCGGAGAAACACACGUUGUGGUAUAUUACCUGGUA [A31U A39G], the self-cleavage is 0.0984.

As to GUCCUCUUUCACGUGCGCGUGAAAGAGAGAAAUGAACCAGAGAAACAAACGUUGUGGUAUAUUACCUGGUA [G32A C48A], the self-cleavage was determined as 0.128.

On to GUCCUCUUUCACGUGCGCGUGAAAGAGAGAUGUGAACCAGAGAAACACACGUUGGGGUAUAUUACCUGGUA [A31U U55G], for which the self-cleavage was determined as 0.089.

Regarding GUCCUCUUUCACGUGCGCGUGAAAGAGAGAUGUGAACCAGACAAACACACGUUGUGGUAUAUUACCUGGUA [A31U G42C], the self-cleavage was 0.0816.

Regarding GUCCUCUUUCACGUGCGCGUGAAAGAGAGAUGUGACCCAGAGAAACACACGUUGUGGUAUAUUACCUGGUA [A31U A36C], the self-cleavage came to 0.197.

Consider GUCCUCUUUCACGUGCGCGUGAAAGAGAGAUGUGAGCCAGAGAAACACACGUUGUGGUAUAUUACCUGGUA [A31U A36G], for which the self-cleavage turned out to be 0.151.

Consider GUCCUCUUUCACGUGCGCGUGAAAGAGAGAUGUGAACGAGAGAAACACACGUUGUGGUAUAUUACCUGGUA [A31U C38G], for which the self-cleavage worked out at 0.

For GUCCUCUUUCACGUGCGCGUGAAAGAGAGAUGUGAACCAGAGAAACACACGUAGUGGUAUAUUACCUGGUA [A31U U53A], the self-cleavage turned out to be 0.026.

Take GUCCUCUUUCACGUGCGCGUGAAAGAGAGAUGUGAACCAGAGAAACACACGUGGUGGUAUAUUACCUGGUA [A31U U53G]: the self-cleavage was found to be 0.122.

Turning to GUCCUCUUUCACGUGCGCGUGAAAGAGAGAUGUGAACCAGAGAAACACACGUUGUGGUAUAUAACCUGGUA [A31U U63A], the self-cleavage turned out to be 0.0279.

As for GUCCUCUUUCACGUGCGCGUGAAAGAGAGAUGUGAACCAGAGAAACACACGUUGUGGUAUAUGACCUGGUA [A31U U63G], the self-cleavage was 0.0484.

As for GUCCUCUUUCACGUGCGCGUGAAAGAGAGAAAUGAACCAGAGAAACACACGUUGUGGUAUUUUACCUGGUA [G32A A61U], the self-cleavage is 0.154.

In the case of GUCCUCUUUCACGUGCGCGUGAAAGAGAGAAAUGAACCUGAGAAACACACGUUGUGGUAUAUUACCUGGUA [G32A A39U], the self-cleavage stood at 0.108.

Take GUCCUCUUUCACGUGCGCGUGAAAGAGAGAUGUGAACCAGAGAAACAAACGUUGUGGUAUAUUACCUGGUA [A31U C48A]: the self-cleavage was determined as 0.166.

For GUCCUCUUUCACGUGCGCGUGAAAGAGAGAAAUGAACCAGAGAAACACACGUUGUGGUAUAUUAGCUGGUA [G32A C65G], the self-cleavage was 0.102.

With GUCCUCUUUCACGUGCGCGUGAAAGAGAGAAAUGAACCAGAGAAACACACGUUGUGGUAUAUUAACUGGUA [G32A C65A], the self-cleavage was 0.0853.

For the variant GUCCUCUUUCACGUGCGCGUGAAAGAGAGAUGUGAACCAGCGAAACACACGUUGUGGUAUAUUACCUGGUA [A31U A41C], the self-cleavage worked out at 0.154.

On to GUCCUCUUUCACGUGCGCGUGAAAGAGAGAUGUGAACCAGAGAAACACACGUUGUGGUUUAUUACCUGGUA [A31U A59U], for which the self-cleavage came to 0.201.

With GUCCUCUUUCACGUGCGCGUGAAAGAGAGAUGUGAACCAGAGAAACACACGUUGUGGUCUAUUACCUGGUA [A31U A59C], the self-cleavage was 0.0285.

Turning to GUCCUCUUUCACGUGCGCGUGAAAGAGAGAAAUGAACCAGAGAAACACACGUAGUGGUAUAUUACCUGGUA [G32A U53A], the self-cleavage amounted to 0.0993.

For GUCCUCUUUCACGUGCGCGUGAAAGAGAGAAAUGAACCAGAGAAACACACGUUGUGGUAUAUUACCGGGUA [G32A U67G], the self-cleavage turned out to be 0.0549.

Take GUCCUCUUUCACGUGCGCGUGAAAGAGAGAAAUGAACCAGAGGAACACACGUUGUGGUAUAUUACCUGGUA [G32A A43G]: the self-cleavage came out at 0.141.

Turning to GUCCUCUUUCACGUGCGCGUGAAAGAGAGAAAUGAACCAGAGCAACACACGUUGUGGUAUAUUACCUGGUA [G32A A43C], the self-cleavage was determined as 0.0569.

Regarding GUCCUCUUUCACGUGCGCGUGAAAGAGAGAAAUGAACCAGAGAGACACACGUUGUGGUAUAUUACCUGGUA [G32A A44G], the self-cleavage was 0.143.

On to GUCCUCUUUCACGUGCGCGUGAAAGAGAGAAAUGAACCAGAGAUACACACGUUGUGGUAUAUUACCUGGUA [G32A A44U], for which the self-cleavage is 0.152.

As to GUCCUCUUUCACGUGCGCGUGAAAGAGAGAAAUGAACCAGAGACACACACGUUGUGGUAUAUUACCUGGUA [G32A A44C], the self-cleavage turned out to be 0.0922.

GUCCUCUUUCACGUGCGCGUGAAAGAGAGAAAUGAACCAGAGAAACACACGUUGUGGUAUAUUACCUGGCA [G32A U70C]: the self-cleavage came to 0.0825.

As to GUCCUCUUUCACGUGCGCGUGAAAGAGAGAUGUGAACCAGAGAAUCACACGUUGUGGUAUAUUACCUGGUA [A31U A45U], the self-cleavage stood at 0.131.

As for GUCCUCUUUCACGUGCGCGUGAAAGAGAGAUGUGAACCAGAGAAGCACACGUUGUGGUAUAUUACCUGGUA [A31U A45G], the self-cleavage is 0.0267.

For GUCCUCUUUCACGUGCGCGUGAAAGAGAGAACUGCACCAGAGAAACACACGUUGUGGUAUAUUACCUGGUA [G32C A35C], the self-cleavage is 0.

With GUCCUCUUUCACGUGCGCGUGAAAGAGAGAUGUGAACCAAAGAAACACACGUUGUGGUAUAUUACCUGGUA [A31U G40A], the self-cleavage was 0.117.

As to GUCCUCUUUCACGUGCGCGUGAAAGAGAGAUGUUAACCAGAGAAACACACGUUGUGGUAUAUUACCUGGUA [A31U G34U], the self-cleavage came to 0.167.

On to GUCCUCUUUCACGUGCGCGUGAAAGAGAGAUGUGAACCAGAGAAACACGCGUUGUGGUAUAUUACCUGGUA [A31U A49G], for which the self-cleavage stood at 0.121.

In the case of GUCCUCUUUCACGUGCGCGUGAAAGAGAGAUGUGAACCAGAGAAACACCCGUUGUGGUAUAUUACCUGGUA [A31U A49C], the self-cleavage amounted to 0.139.

Regarding GUCCUCUUUCACGUGCGCGUGAAAGAGAGAAAUGAACCACAGAAACACACGUUGUGGUAUAUUACCUGGUA [G32A G40C], the self-cleavage came to 0.156.

For GUCCUCUUUCACGUGCGCGUGAAAGAGAGAUGUGAACCAGAGAAACACACGUUCUGGUAUAUUACCUGGUA [A31U G54C], the self-cleavage was determined as 0.119.

As for GUCCUCUUUCACGUGCGCGUGAAAGAGAGAAACGAACCAGAGAAACACACGUUGUGGUAUAUUACCUGGUA [G32A U33C], the self-cleavage is 0.119.
